Patent publication US20250262210A1 (TRUSTEES OF COLUMBIA UNIVERSITY IN THE CITY OF NEW YORK, published 2025)

Legend:
Experiment in all cases: IP/MS, LZTR1 wild type-FLAG, U87
SPG11 = SPG11 (human, UniProt Q96JI7 1-2443, limits assumed)
Summary of the method: (§1)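 Gel slices were reduced with 5 mM DTT, alkylated with 11 mM IAA and digested overnight at 37° C. with trypsin. Peptides were analysed on an Orbitrap Fusion Tribrid by LC-MS/MS.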

SREBF2 = target: T1, SREBF2 (human, UniProt Q12772 1-1141, limits assumed)
T1 sequence (looked up): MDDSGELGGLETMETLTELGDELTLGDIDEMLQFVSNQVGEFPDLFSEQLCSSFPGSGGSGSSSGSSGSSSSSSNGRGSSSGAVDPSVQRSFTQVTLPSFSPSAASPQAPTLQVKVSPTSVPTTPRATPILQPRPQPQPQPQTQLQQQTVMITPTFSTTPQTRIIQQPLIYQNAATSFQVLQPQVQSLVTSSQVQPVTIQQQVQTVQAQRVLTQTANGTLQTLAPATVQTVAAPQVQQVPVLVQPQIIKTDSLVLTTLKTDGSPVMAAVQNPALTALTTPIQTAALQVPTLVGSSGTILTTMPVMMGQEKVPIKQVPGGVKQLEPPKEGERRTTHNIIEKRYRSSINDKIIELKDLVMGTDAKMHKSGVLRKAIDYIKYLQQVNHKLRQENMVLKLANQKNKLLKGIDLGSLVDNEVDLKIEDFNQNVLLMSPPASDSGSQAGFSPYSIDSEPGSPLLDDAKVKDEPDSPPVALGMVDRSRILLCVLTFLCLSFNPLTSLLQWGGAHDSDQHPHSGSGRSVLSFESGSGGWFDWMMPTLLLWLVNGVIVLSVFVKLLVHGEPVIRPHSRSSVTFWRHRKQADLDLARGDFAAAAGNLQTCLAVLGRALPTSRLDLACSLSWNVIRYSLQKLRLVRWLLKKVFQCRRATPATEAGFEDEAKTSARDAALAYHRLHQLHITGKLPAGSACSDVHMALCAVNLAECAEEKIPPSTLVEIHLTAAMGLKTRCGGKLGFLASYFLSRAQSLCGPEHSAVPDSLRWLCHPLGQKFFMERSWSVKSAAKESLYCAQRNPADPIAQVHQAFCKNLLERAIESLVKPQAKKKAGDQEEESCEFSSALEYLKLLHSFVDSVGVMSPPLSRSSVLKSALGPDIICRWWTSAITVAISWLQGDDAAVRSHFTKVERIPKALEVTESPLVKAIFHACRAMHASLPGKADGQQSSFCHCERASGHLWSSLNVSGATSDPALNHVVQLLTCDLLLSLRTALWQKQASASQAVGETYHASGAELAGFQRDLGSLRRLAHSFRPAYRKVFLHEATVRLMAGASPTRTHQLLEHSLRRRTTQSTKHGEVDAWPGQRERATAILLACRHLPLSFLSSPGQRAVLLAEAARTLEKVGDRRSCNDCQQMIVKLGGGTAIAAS
Summary of the method: as §1

MYO10 = MYO10 (human, UniProt Q9HD67 1-2058, limits assumed)
MYO10, sequence (Q9HD67 whole entry): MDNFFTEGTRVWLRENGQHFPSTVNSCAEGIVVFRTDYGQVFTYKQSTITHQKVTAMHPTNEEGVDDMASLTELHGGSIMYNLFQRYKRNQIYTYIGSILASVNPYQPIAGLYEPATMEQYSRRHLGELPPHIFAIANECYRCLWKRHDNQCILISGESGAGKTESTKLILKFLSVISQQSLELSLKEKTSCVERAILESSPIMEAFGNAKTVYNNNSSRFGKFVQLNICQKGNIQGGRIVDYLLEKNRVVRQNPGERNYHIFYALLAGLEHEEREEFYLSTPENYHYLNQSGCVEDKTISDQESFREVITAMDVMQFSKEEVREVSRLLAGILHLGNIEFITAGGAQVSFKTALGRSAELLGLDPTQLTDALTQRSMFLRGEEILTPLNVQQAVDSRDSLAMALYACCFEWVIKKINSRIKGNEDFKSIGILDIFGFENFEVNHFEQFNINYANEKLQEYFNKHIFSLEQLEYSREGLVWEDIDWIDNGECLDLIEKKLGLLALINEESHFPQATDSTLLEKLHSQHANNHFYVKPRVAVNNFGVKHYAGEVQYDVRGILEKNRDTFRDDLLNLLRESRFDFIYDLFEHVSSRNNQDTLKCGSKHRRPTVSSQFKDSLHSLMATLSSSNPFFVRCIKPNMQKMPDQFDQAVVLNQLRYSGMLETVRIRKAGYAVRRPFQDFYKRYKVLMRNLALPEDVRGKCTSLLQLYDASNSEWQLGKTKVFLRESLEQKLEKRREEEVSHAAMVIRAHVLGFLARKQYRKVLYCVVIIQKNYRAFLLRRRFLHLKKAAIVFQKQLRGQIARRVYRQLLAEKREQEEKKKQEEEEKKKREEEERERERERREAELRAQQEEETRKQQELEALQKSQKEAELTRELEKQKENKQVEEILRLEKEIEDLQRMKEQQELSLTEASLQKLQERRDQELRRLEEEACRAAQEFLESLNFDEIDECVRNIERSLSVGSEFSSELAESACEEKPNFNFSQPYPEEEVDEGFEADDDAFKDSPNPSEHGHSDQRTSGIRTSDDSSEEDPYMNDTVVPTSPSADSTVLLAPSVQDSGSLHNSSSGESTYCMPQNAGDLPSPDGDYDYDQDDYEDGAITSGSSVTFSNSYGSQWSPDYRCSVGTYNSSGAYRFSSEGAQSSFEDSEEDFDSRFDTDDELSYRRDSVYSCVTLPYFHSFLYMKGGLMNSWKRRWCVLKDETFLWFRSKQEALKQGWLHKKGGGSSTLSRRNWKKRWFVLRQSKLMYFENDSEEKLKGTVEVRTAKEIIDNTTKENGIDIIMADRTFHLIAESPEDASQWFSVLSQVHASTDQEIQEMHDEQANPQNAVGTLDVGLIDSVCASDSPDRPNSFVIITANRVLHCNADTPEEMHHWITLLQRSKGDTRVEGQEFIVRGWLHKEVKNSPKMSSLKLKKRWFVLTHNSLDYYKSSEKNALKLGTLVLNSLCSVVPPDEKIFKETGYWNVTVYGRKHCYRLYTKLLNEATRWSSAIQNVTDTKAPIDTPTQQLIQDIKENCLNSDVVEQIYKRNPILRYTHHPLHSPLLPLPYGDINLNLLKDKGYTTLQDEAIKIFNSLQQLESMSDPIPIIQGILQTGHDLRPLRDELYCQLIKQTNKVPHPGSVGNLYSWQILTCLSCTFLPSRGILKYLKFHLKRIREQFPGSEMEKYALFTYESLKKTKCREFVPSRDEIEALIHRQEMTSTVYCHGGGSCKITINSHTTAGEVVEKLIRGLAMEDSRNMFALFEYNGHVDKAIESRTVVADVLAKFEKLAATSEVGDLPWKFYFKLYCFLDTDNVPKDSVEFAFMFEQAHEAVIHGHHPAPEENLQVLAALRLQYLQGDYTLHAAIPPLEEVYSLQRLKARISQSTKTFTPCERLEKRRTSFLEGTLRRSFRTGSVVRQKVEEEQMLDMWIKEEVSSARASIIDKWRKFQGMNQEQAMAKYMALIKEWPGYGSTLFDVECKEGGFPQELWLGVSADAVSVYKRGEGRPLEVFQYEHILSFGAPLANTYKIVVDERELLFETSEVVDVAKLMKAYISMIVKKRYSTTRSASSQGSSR
Summary of the method: as §1

WDR6 = target: T2, WDR6 (human, UniProt Q9NNW5 1-1121)
T2 sequence (looked up): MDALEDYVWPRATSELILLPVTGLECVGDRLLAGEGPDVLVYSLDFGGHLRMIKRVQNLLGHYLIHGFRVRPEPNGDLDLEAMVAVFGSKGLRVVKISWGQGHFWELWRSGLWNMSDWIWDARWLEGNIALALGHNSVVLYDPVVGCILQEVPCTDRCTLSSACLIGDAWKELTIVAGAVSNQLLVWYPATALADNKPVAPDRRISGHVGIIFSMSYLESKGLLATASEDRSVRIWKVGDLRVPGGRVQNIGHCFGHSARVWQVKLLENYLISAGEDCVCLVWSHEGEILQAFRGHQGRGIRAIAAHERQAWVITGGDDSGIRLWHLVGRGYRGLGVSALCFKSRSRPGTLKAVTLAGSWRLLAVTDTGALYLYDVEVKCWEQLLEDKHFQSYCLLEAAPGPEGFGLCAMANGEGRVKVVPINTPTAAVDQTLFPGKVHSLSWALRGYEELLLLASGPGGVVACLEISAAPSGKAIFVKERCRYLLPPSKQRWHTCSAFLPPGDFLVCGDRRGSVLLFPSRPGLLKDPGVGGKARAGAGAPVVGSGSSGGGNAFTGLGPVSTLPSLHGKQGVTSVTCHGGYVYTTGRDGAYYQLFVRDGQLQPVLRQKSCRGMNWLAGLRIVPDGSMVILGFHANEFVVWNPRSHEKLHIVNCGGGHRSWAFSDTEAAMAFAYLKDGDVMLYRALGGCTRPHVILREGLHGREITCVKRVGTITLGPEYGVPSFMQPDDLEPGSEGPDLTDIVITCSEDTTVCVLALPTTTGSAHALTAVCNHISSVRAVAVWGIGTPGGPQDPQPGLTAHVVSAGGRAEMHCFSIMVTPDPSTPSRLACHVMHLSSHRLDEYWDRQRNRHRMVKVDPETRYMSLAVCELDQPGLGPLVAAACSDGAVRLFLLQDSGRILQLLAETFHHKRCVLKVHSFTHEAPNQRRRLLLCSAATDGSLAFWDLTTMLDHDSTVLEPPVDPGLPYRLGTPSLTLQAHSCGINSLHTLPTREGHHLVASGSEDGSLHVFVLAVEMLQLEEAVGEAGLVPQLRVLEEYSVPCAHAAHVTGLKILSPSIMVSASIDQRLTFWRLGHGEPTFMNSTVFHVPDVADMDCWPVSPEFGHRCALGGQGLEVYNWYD
Summary of the method: as §1

SPG11, sequence (Q96JI7 whole entry, the tested form may be a part): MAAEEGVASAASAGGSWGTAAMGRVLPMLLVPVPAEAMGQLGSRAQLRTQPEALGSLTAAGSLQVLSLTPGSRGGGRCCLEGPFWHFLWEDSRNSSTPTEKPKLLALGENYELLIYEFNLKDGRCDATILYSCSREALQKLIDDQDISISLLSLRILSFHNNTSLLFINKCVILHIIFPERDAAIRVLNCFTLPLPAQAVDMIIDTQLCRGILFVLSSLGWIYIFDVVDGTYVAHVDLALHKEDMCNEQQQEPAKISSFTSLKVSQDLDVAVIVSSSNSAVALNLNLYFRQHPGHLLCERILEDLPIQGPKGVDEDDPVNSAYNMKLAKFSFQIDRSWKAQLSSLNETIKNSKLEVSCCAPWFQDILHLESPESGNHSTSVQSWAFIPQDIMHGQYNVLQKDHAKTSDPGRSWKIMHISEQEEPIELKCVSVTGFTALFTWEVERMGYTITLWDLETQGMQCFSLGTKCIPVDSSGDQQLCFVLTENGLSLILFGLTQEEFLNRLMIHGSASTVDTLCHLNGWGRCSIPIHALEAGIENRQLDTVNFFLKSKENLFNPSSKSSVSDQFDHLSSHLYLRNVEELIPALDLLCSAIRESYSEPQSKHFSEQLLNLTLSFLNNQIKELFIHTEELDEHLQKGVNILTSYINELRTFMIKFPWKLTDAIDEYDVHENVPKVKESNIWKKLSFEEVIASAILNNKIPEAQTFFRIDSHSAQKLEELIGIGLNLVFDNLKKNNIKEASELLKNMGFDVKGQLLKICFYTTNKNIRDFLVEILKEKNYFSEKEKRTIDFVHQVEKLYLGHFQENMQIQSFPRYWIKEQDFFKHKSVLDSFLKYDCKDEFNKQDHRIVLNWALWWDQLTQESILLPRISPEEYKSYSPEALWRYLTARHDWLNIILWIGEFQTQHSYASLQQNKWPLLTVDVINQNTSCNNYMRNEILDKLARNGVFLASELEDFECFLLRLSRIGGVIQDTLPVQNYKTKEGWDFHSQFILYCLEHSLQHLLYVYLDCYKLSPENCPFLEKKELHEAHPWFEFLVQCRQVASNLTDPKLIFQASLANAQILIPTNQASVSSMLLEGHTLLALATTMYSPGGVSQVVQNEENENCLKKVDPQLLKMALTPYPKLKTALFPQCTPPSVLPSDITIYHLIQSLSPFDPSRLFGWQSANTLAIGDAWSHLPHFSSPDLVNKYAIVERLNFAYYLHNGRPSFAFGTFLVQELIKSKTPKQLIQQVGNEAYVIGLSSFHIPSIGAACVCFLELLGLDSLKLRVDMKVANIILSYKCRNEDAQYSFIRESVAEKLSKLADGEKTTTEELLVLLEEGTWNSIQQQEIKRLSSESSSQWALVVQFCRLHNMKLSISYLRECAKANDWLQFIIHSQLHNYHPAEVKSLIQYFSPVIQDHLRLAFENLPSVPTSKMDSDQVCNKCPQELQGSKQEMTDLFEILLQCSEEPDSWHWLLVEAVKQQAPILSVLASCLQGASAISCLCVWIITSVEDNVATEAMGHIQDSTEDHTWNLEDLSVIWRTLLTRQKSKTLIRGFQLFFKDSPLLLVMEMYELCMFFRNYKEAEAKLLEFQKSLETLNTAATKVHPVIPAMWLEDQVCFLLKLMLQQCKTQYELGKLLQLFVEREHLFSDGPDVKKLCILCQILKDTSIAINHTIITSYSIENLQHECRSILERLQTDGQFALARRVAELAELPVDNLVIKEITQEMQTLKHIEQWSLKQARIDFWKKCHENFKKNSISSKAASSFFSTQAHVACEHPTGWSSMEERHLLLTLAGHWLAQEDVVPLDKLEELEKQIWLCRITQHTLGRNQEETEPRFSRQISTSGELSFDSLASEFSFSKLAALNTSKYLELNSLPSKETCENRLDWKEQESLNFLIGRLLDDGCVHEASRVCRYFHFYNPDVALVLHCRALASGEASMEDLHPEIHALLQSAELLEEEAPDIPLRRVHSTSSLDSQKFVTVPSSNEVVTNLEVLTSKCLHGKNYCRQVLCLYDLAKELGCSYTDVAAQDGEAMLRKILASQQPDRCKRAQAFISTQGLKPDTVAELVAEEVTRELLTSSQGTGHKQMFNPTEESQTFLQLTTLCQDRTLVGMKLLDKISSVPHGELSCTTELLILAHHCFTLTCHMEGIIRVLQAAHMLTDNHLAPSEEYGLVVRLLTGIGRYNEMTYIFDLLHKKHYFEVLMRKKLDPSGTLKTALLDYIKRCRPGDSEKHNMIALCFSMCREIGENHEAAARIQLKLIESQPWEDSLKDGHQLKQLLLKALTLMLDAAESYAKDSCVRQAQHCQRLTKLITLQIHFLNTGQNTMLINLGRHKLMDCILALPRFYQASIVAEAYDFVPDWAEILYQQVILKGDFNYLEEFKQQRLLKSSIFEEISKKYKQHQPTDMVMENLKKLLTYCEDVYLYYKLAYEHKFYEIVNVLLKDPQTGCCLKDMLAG

binding result (SPG11): binds
binding result (SREBF2): binds
binding result (MYO10): binds
binding result (WDR6): binds
B1: LZTR1-FLAG (other, human, UniProt Q8N653 1-840, looked up)
chain: MAGPGSTGGQIGAAALAGGARSKVAPSVDFDHSCSDSVEYLTLNFGPFETVHRWRRLPPCDEFVGARRSKHTVVAYKDAIYVFGGDNGKTMLNDLLRFDVKDCSWCRAFTTGTPPAPRYHHSAVVYGSSMFVFGGYTGDIYSNSNLKNKNDLFEYKFATGQWTEWKIEGRLPVARSAHGATVYSDKLWIFAGYDGNARLNDMWTIGLQDRELTCWEEVAQSGEIPPSCCNFPVAVCRDKMFVFSGQSGAKITNNLFQFEFKDKTWTRIPTEHLLRGSPPPPQRRYGHTMVAFDRHLYVFGGAADNTLPNELHCYDVDFQTWEVVQPSSDSEVGGAEVPERACASEEVPTLTYEERVGFKKSRDVFGLDFGTTSAKQPTQPASELPSGRLFHAAAVISDAMYIFGGTVDNNIRSGEMYRFQFSCYPKCTLHEDYGRLWESRQFCDVEFVLGEKEECVQGHVAIVTARSRWLRRKITQARERLAQKLEQEAAPVPREAPGVAAGGARPPLLHVAIREAEARPFEVLMQFLYTDKIKYPRKGHVEDVLLIMDVYKLALSFQLCRLEQLCRQYIEASVDLQNVLVVCESAARLQLSQLKEHCLNFVVKESHFNQVIMMKEFERLSSPLIVEIVRRKQQPPPRTPLDQPVDIGTSLIQDMKAYLEGAGAEFCDITLLLDGHPRPAHKAILAARSSYFEAMFRSFMPEDGQVNISIGEMVPSRQAFESMLRYIYYGEVNMPPEDSLYLFAAPYYYGFYNNRLQAYCKQNLEMNVTVQNVLQILEAADKTQALDMKRHCLHIIVHQFTKVSKLPTLRSLSQQLLLDIIDSLASHISDKQCAELGADI
notes: Expressed in HEK 293T, HeLa or U87 cells; used as cell lysate; also called LZTR1 wild type-FLAG; LZTR1 WT; not shown: FLAG tag at the C-terminus
